B1: sp¦P0C7L0¦WIPF3_MOUSE (protein, UniProt P0C7L0 1-485, looked up)
WAS/WASL-interacting protein …: MPVPPPPPPPPPPPPPPPPPLGAPPPPPLGAPPPPPPPGPPVSTDTPSLRKPDLKGRSALLADIQQGTRLRKVTQINDRSAPQIEGSKGTSKEGGAAGSNARGGNTPPALGDLFAGGFPVLRPAGQRDVSGGKSGQGPGSRAPSPRLPIKAISGPLPAPASPRLGNASETHSSARPVPPRPSVPAPPPPTPPPPPPPPLPPASPIKAQLVSPPAPPTKVNPSVVPPPLPCAPPLPPPPPTPPPLPPASALSDKAVRPQLAPLHLPPIPPPLPLLPPCGYPGLHSEPNSPAQEVREPPAPPPPPPPPPPPPLPTYASCSSRTAVAPPPLPGANNSGSETPPPLPPKSPSFQTQKALPTPPGAPGPQAILQKKRRGPGTSGGKLNPPPAPPARSPTTELSSKSQQPGGQLRNGGQHAIDDFESKFTFHSMEDFPPPDEYKPCQKIYPSKVPRSRTPGSWLQAEAAGQSSDDIKSRNSQLSLKALPVR
B2: sp¦Q3UHB1¦NT5D3_MOUSE (protein, UniProt Q3UHB1 1-546, looked up)
5'-nucleotidase …: MATVAAAARGAGARAAAGLRSCGGAVARERPRSGCARRLCSAPAAPAAVDMKSYLWARYHEAKRSTDELVPSIMNNLLNPDAIFSNNEMSLSDIEIYGFDYDYTLVFYSKHLHTLIFNAARDLLINEHRYPVEIRKYEYDPSFAIRGLHYDVQRAVLMKIDAFHYIQMGTVYRGLSVVPDEEVIDMYEGSHVPLEQMSDFYGKSSHGNTMKQFMDIFSLPEMTLLSCVNEHFLKNNIDYEPVHLYKDVKDSIRDVHIKGIMYRAIEADIEKYICYADQTRAVLAKLAAHGKKMFLITNSPSSFVDKGMRYIVGKDWRDLFDVVIVQAEKPNFFNDKRRPFRKVNEKGVLLWDKIHKLQKGQIYKQGNLYEFLKLTGWRGSKVLYFGDHIYSDLADLTLKHGWRTGAIIPELRSELRIMNTEQYIQTMTWLQTLTGLLEQMQVHRDAESQLVLQEWKKERKEMREMTKSFFNAQFGSLFRTDQNPTYFLRRLSRFADIYMASLSCLLNYDVHHTFYPRRTPLQHELPAWSDSPSAFKAPLLQEAQAK
B3: sp¦Q6NWV3¦IF122_MOUSE (protein, UniProt Q6NWV3 1-1182, looked up)
Intraflagellar transport …: MRAVLTWRDKAEQCIYDLAFKPDGTQLILAAGNRLLVYDTSDGTLLQPLKGHKDTVYCVAYAKDGKRFASGSADKSIIIWTSKLEGILKYTHNDSIQCVSYNPVTHQLASCSSSDFGLWSPEQKSVSKHKSSSKITCCSWTNDGQYLALGMANGIISIRNKNGEEKVKIERPGGSLSPIWSICWNPSREEHNDILAVADWGQKLSFYQLSGKQIGKDRPLNFDPCCISYFTKGEYILVGGSDKQVSLFTKDGVRLGTVGEQNSWVWTCRVKPDSNYVVVGCQDGTISFYQLIFSTVHGLYKDRYAYRDSMTDVIVQHLITEQKVRIKCRELVKKIAIYKNRLAIQLPEKILIYELYSEDSTDMHYRVKEKIVKKFECNLLVVCADHIILCQEKRLQCLSFSGVKEREWQMESLIRYIKVIGGPAGREGLLVGLKNGQILKIFVDNLFAIVLLKQATAVRCLDMSASRNKLAVVDENDTCLVYDIHTKELLFQEPNANSVAWNTQCEDMLCFSGGGYLNIKASTFPVHQQKLQGFVVGYNGSKIFCLHVFSMSAVEVPQSAPMYQYLDRKMFKEAYQIACLGVTDADWRELAMEALEGLEFETARKAFTRVQDLRYLELISSIEERKKRGETNNDLFLADVFSYQGKFHEAAKLYKRSGHENLALDMYTDLCMFEYAKDFLGSGDPKETKMLITKQADWARNINEPKAAVEMYISAGEHAKAIEISGSHGWVDMLIDIARKLDKAEREPLLMCACYFKKLDSPGYAAETYLKIGDLKSLVQLYVDTKRWDEAFALGEKHPEFKDDVYVPYAQWLAENDRFEEAQKAFHKAGRQGEAVRVLEQLTHNAVVESRFNDAAYYYWMLSMQCLDMAQDPAQKDAMLDKFHHFQHLAELYHGYQTIHRYTEEPFSFDLPETLFNISKFLLHSLTKATPLGISKVNTLFTLAKQSKALGAYKLARHAYDKLRGLQIPARIQKSIELGTLTIRSKPFHDSEELVPLCYRCSTNNPLLNNLGNVCINCRQPFIFSASSYEVLHLVEFYLEEGITDEEAVALIDLEAPRHKREGKWRETSSNNSQTLKLDETMDSIGEDDPFTAKLSFEQGSSEFVPVVVNRSVLRSMSRRDVLIKRWPPPLQWQYFRSLLPDASITMCPSCFQMFHSEDYELLVLQHACCPYCRRRIDDTGP

Each molecule was assayed on hippocampal proteins (assay: DIA quantification proteomics, hippocampus of Mdga2+/- vs WT mice). Settings: Mdga2+/- vs WT mouse hippocampus (HET-HIP-VS-WT-HIP); S3 Table, downregulated DEPs; SE, pvalue and adj_pvalue in own columns c3-c5.
Design: species or system mouse
Procedure: The hippocampus of 1.5–2-month-old Mdga2^ +/− male mice and their WT littermate controls was collected and sent to the BGI company for DIA quantification proteomics and data analysis. Briefly, samples were lysed and sonicated. After centrifugation, the supernatant was taken for quantification. Equal amounts of proteins (100 μg) per sample were subjected to trypsin enzymatic hydrolysis. After dryness, 10 μg enzymatic peptides per sample were separated by high-pH fractionation into a total of 10 fractions using high-performance liquid chromatography (HPLC) and freeze-dried. Data-dependent acquisition (DDA) fractions and DIA samples were analyzed by nano-LC–MS/MS. DDA data was identified by Andromeda search engine within MaxQuant. Identified results were used by Spectronaut^TM for spectral library construction. For DIA data, Spectronaut^TM used the constructed spectral library information to complete deconvolution and extraction, and used the mProphet algorithm to complete analytical quality control for obtaining reliable quantitative results. The mass spectrometry proteomics data have been deposited to the ProteomeXchange Consortium via the PRIDE [62] partner repository with the dataset identifier PXD050810. DEPs between comparison groups were identified based on the quantitative results, using the fold change >1.1 and p-value <0.05 as the criteria. After retrieval from the UniProtKB database, identified DEPs were processed for GO analysis by using DAVID (https://david.ncifcrf.gov/home.jsp) and Metascape database (https://metascape.org/gp/index.html).
In the case of B1, the log2FC is reported as -1.266. In the case of B2, the log2FC is reported as -1.2606. B3 showed a log2FC of -1.266.

Same assay, conditions: regulation class of the protein, HET-HIP-VS-WT-HIP; S3 Table, downregulated DEPs
For B1, the Class was “Down”. With B2 the Class was “Down”. For B3, the Class was “Down”.

— article PMC11960969, “Mdga2 deficiency leads to an aberrant activation of BDNF/TrkB signaling that underlies autism-relevant synaptic and behavioral changes in mice” (PLOS Biology, 2025)
